Measured values as given in patent US20230124851A1 (INHIBRX LNC, published 2023).

T1: human B7H3 (CD276) on the cell surface (human, UniProt Q5ZPR3 29-534)
T1 construct: B7H3 on A375 and other B7H3-positive or transfected cells
T1 sequence: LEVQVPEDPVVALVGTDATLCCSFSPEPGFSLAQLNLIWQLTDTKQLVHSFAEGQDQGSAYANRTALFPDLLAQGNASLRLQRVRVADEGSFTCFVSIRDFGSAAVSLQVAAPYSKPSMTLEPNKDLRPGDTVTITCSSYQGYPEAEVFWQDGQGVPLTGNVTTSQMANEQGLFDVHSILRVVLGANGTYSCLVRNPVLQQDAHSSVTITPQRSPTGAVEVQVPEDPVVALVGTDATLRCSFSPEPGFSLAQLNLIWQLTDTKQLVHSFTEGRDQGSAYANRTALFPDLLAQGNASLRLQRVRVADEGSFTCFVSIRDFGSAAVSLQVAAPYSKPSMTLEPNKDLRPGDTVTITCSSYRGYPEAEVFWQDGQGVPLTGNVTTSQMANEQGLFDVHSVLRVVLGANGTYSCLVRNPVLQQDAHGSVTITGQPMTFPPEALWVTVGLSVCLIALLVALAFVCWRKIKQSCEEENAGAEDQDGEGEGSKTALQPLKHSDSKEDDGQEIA


Legend:
[1] = target: T1, human B7H3 (CD276) on the cell surface; test: flow cytometry on A375 cells (B7H3+), anti-human Fc secondary
[2] = target: T2, CD3 on the surface of human T cells (human, UniProt P07766 23-207); test: flow cytometry on isolated T cells, anti-human Fc secondary
T2 construct: whole, on cells; Part of the CD3/TCR complex on cells; also called CD3 epsilon
Procedure: Binding of exemplary multispecific constructs containing an antigen-binding domain directed against B7H3 were assessed for binding to B7H3 positive A375 tumor cells or primary T-cells. The constructs were generated containing antigen-binding domain(s) that were either sdAbs or a FABs, and that were positioned either only N-terminal to the Fc or both N-terminal to the Fc and C-terminal to the anti-CD3 binding domain (see FIGS. 30A and 30C and Table E5). Among the various formats of constructs tested included: sdAb-Fc-dsFV-sdAb (cx3072, cx5952) sdAb-Fc-FV (cx6079), sdAb-Fc-dsFV (cs6080, cx6081), MAB-FV (cx5067) and MAB-dsFV (cx6083, cx6084), where the FV represents the anti-CD3 binding domain composed of VH and VL domain pairs and “ds” notes disulfide stabilized via an engineered interdomain disulfide bond.
Binding was assessed as described above via flow cytometry using a fluorophore-conjugated anti-human Fc secondary antibody. cx3072 bound to A375 cells with high affinity (FIG. 31A) but not to isolated T-cells (FIG. 31B). […] The B7H3 -targeting sdAb containing constructs (cx5952, cx6079, cx6080, and cx6081) bound to B7H3 positive cells with similar affinities (depicted in FIG. 31E), with cx5952 displaying higher maximal binding. cx6079, cx6080 and cx6081 contain two identical B7H3-targeting sdAbs, whereas cx5952, and cx3072 contain two distinct B7H3-targeting sdAb that bind different epitopes. The MAB-FV, cx5067, contains two identical B7H3-targeting FAB domains.

T2 sequence (P07766 23-207): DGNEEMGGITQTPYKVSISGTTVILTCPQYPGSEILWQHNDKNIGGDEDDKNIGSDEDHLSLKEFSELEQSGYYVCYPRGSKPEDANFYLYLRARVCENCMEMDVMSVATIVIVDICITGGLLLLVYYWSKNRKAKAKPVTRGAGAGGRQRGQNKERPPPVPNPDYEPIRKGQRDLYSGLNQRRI

binding result [1] | binding result [2] | Binder
binds | no binding | cx5187 (bispecific antibody) chain 1: EVQLVESGGGEVQPGGSLRLSCAASGFSFSSNVMMWVRQAPGKGLEWVSTIYSSGTGTFYAESVKGRFTISRDNAKNTLYLQMSSLRPEDTAVYYCATSGPVRGWGPRSQGTLVTVKPPGGGGDKTHTCPPCPAPGGPSVFLFPPKPKDTLMISRTPEVTCVVVDVSHEDPEVKFNWYVDGVEVHNAKTKPREEQYNSTYRVVSVLTVLHQDWLNGKEYKCKVSNKALPAPIEKTISKAKGQPREPQVYTLPPCRDELTKNQVSLWCLVKGFYPSDIAVEWESNGQPENNYKTTPPVLDSDGSFFLYSKLTVDKSRWQQGNVFSCSVMHEALHNHYTQKSLSLSPTGGGGGSGGGGGSGGGGGSEVQLVESGGGLVQPGGSLRLSCAASGFTFNTYAMNWVRQAPGKCLEWVARIRSKYNNYATYYADSVKGRFTISRDDAKNTLYLQMSSLRAEDTAVYYCVRHGNFGNSYVSWFAYWGQGTLVTVKPGGGGEVQLVESGGGEVQPGGSLRLSCAASGFTFSSYHMSWFRQAPGKQREPVATSHHGGTTNYAGSVKGRFTISRDNAKNTVYLQMNTLRAEDTAVYYCKADHGYQGRGYWGQGTLVTVKP chain 2: DKTHTCPPCPAPGGPSVFLFPPKPKDTLMISRTPEVTCVVVDVSHEDPEVKFNWYVDGVEVHNAKTKPREEQYNSTYRVVSVLTVLHQDWLNGKEYKCKVSNKALPAPIEKTISKAKGQPREPQVCTLPPSRDELTKNQVSLSCAVKGFYPSDIAVEWESNGQPENNYKTTPPVLDSDGSFFLVSKLTVDKSRWQQGNVFSCSVMHEALHNRYTQKSLSLSPTGGGGGSGGGGGSGGGGGSQAVVTQEPSLTVSPGGTVTLTCGSSTGAVTTSNYANWVQQKPGQAFRGLIGGTNKRAPGVPARFSGSLLGGKAALTISGAQPEDEADYYCALWYSNHWVFGCGTKLEIKGGGGEVQLLESGGGEVQPGGSLRLSCAASGFSFSINAMGWYRQAPGKRREFVAAIESGRNTVYAESVKGRFTISRDNAKNTVYLQMSSLRAEDTAVYYCGLLKGNRVVSPSVAYWGQGTLVTVKP
binds | no binding | cx5965 (bispecific antibody, first-named used) chain 1: EVQLVESGGGEVQPGGSLRLSCAASGFSFSSNVMMWVRQAPGKGLEWVSTIYSSGTGTFYAESVKGRFTISRDNAKNTLYLQMSSLRPEDTAVYYCATSGPVRGWGPRSQGTLVTVKPPGGGGDKTHTCPPCPAPGGPSVFLFPPKPKDTLMISRTPEVTCVVVDVSHEDPEVKFNWYVDGVEVHNAKTKPREEQYNSTYRVVSVLTVLHQDWLNGKEYKCKVSNKALPAPIEKTISKAKGQPREPQVYTLPPCRDELTKNQVSLWCLVKGFYPSDIAVEWESNGQPENNYKTTPPVLDSDGSFFLYSKLTVDKSRWQQGNVFSCSVMHEALHNHYTQKSLSLSPTGGGGGSGGGGGSGGGGGSEVQLVESGGGLVQPGGSLRLSCAASGFTFNTYAMNWVRQAPGKCLEWVARIRSKYNNYATYYADSVKGRFTISRDDAKNTLYLQMSSLRAEDTAVYYCVRHGNFGNSYVSWFAYWGQGTLVTVKP chain 2: DKTHTCPPCPAPGGPSVFLFPPKPKDTLMISRTPEVTCVVVDVSHEDPEVKFNWYVDGVEVHNAKTKPREEQYNSTYRVVSVLTVLHQDWLNGKEYKCKVSNKALPAPIEKTISKAKGQPREPQVCTLPPSRDELTKNQVSLSCAVKGFYPSDIAVEWESNGQPENNYKTTPPVLDSDGSFFLVSKLTVDKSRWQQGNVFSCSVMHEALHNRYTQKSLSLSPTGGGGGSGGGGGSGGGGGSQAVVTQEPSLTVSPGGTVTLTCGSSTGAVTTSNYANWVQQKPGQAFRGLIGGTNKRAPGVPARFSGSLLGGKAALTISGAQPEDEADYYCALWYSNHWVFGCGTKLEIKGGGGEVQLLESGGGEVQPGGSLRLSCAASGFSFSINAMGWYRQAPGKRREFVAAIESGRNTVYAESVKGRFTISRDNAKNTVYLQMSSLRAEDTAVYYCGLLKGNRVVSPSVAYWGQGTLVTVKP
binds | no binding | cx5873 (bispecific antibody, first-named used) chain 1: DKTHTCPPCPAPGGPSVFLFPPKPKDTLMISRTPEVTCVVVDVSHEDPEVKFNWYVDGVEVHNAKTKPREEQYNSTYRVVSVLTVLHQDWLNGKEYKCKVSNKALPAPIEKTISKAKGQPREPQVYTLPPCRDELTKNQVSLWCLVKGFYPSDIAVEWESNGQPENNYKTTPPVLDSDGSFFLYSKLTVDKSRWQQGNVFSCSVMHEALHNHYTQKSLSLSPTGGGGGSGGGGGSGGGGGSEVQLVESGGGLVQPGGSLRLSCAASGFTFNTYAMNWVRQAPGKCLEWVARIRSKYNNYATYYADSVKGRFTISRDDAKNTLYLQMSSLRAEDTAVYYCVRHGNFGNSYVSWFAYWGQGTLVTVKPGGGGEVQLVESGGGEVQPGGSLRLSCAASGFTFSSYHMSWFRQAPGKQREPVATSHHGGTTNYAGSVKGRFTISRDNAKNTVYLQMNTLRAEDTAVYYCKADHGYQGRGYWGQGTLVTVKP chain 2: DKTHTCPPCPAPGGPSVFLFPPKPKDTLMISRTPEVTCVVVDVSHEDPEVKFNWYVDGVEVHNAKTKPREEQYNSTYRVVSVLTVLHQDWLNGKEYKCKVSNKALPAPIEKTISKAKGQPREPQVCTLPPSRDELTKNQVSLSCAVKGFYPSDIAVEWESNGQPENNYKTTPPVLDSDGSFFLVSKLTVDKSRWQQGNVFSCSVMHEALHNRYTQKSLSLSPTGGGGGSGGGGGSGGGGGSQAVVTQEPSLTVSPGGTVTLTCGSSTGAVTTSNYANWVQQKPGQAFRGLIGGTNKRAPGVPARFSGSLLGGKAALTISGAQPEDEADYYCALWYSNHWVFGCGTKLEIKGGGGEVQLLESGGGEVQPGGSLRLSCAASGFSFSINAMGWYRQAPGKRREFVAAIESGRNTVYAESVKGRFTISRDNAKNTVYLQMSSLRAEDTAVYYCGLLKGNRVVSPSVAYWGQGTLVTVKP
binds | no binding | cx5823 (bispecific antibody) chain 1: EVQLVESGGGEVQPGGSLRLSCAASGFSFSSNVMMWVRQAPGKGLEWVSTIYSSGTGTFYAESVKGRFTISRDNAKNTLYLQMSSLRPEDTAVYYCATSGPVRGWGPRSQGTLVTVKPPGGGGDKTHTCPPCPAPGGPSVFLFPPKPKDTLMISRTPEVTCVVVDVSHEDPEVKFNWYVDGVEVHNAKTKPREEQYNSTYRVVSVLTVLHQDWLNGKEYKCKVSNKALPAPIEKTISKAKGQPREPQVYTLPPCRDELTKNQVSLWCLVKGFYPSDIAVEWESNGQPENNYKTTPPVLDSDGSFFLYSKLTVDKSRWQQGNVFSCSVMHEALHNHYTQKSLSLSPGGGGGGSGGGGGSGGGGGSEVQLVESGGGLVQPGGSLRLSCAASGFTFNTYAMNWVRQAPGKCLEWVARIRSKYNNYATYYADSVKGRFTISRDDAKNTLYLQMSSLRAEDTAVYYCVRHGNFGNSYVSWFAYWGQGTLVTVKPGGGGEVQLVESGGGEVQPGGSLRLSCAASGFTFSSYHMSWFRQAPGKQRELVATSHHGGTTNYAGSVKGRFTISRDNAKNTVYLQMNTLRAEDTAVYYCKADHGYQGRGYWGQGTLVTVKP chain 2: DKTHTCPPCPAPGGPSVFLFPPKPKDTLMISRTPEVTCVVVDVSHEDPEVKFNWYVDGVEVHNAKTKPREEQYNSTYRVVSVLTVLHQDWLNGKEYKCKVSNKALPAPIEKTISKAKGQPREPQVCTLPPSRDELTKNQVSLSCAVKGFYPSDIAVEWESNGQPENNYKTTPPVLDSDGSFFLVSKLTVDKSRWQQGNVFSCSVMHEALHNRYTQKSLSLSPGGGGGGSGGGGGSGGGGGSQAVVTQEPSLTVSPGGTVTLTCGSSTGAVTTSNYANWVQQKPGQAFRGLIGGTNKRAPGVPARFSGSLLGGKAALTISGAQPEDEADYYCALWYSNHWVFGCGTKLEIKGGGGEVQLLESGGGEVQPGGSLRLSCAASGFSFSINAMGWYRQAPGKRREFVAAIESGRNTVYAESVKGRFTISRDNAKNTVYLQMSSLRAEDTAVYYCGLLKGNRVVSPSVAYWGQGTLVTVKP
